Square brackets hold non-standard residues; d marks the D form. Peptide text beside a SMILES is read from it. * marks the point of attachment. X3 = O=C(CCCCCNCc1nc2c(sc3cc(Br)cnc32)c(=O)[nH]1)*
Tests used:
Assay in all cases: Kinase profiling (radiometric filter-binding)
Format in all cases: biochemical
PRAK = molecular target: T1, PRAK (Homo sapiens, UniProt Q8IW41); settings: 1 µM inhibitor, read-out: Residual activity, %
T1 sequence (Q8IW41 1-473): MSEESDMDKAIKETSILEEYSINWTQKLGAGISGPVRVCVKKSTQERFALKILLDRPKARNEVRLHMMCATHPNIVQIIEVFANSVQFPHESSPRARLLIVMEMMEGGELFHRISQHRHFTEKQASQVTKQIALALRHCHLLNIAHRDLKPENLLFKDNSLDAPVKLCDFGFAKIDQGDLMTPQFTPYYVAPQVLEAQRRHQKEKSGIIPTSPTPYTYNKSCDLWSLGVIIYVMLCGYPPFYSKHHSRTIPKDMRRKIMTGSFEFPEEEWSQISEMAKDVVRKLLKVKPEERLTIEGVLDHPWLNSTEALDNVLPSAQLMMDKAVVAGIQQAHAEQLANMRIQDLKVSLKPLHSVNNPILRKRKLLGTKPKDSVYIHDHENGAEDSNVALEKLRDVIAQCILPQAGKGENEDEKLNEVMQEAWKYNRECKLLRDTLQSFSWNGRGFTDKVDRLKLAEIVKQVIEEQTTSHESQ
Protocol: (§1) Kinase selectivity profiling was performed using the commercial service provided by the MRC PPU International Centre for Kinase Profiling (Dundee, UK) using a radiometric filter-binding assay. Kinases used for analysis were of human origin. The ATP concentration applied for inhibition measurements was at or below the ATP KM value of the particular PK. ARC-3125 and ARC-3126 were screened against 139 PKs, whereas compounds 1, 2, and 8 were screened against 140 PKs. The final total concentration of inhibitors in the selectivity panel was 1 µM. Residual activities were expressed as the percentage of retained activity compared to the control without inhibitor.

TSSK1 = molecular target: T2, TSSK1 (Homo sapiens, UniProt Q9BXA7); settings: TSSK1, 1 µM inhibitor; read-out: Residual activity, %
T2 sequence (Q9BXA7 1-367): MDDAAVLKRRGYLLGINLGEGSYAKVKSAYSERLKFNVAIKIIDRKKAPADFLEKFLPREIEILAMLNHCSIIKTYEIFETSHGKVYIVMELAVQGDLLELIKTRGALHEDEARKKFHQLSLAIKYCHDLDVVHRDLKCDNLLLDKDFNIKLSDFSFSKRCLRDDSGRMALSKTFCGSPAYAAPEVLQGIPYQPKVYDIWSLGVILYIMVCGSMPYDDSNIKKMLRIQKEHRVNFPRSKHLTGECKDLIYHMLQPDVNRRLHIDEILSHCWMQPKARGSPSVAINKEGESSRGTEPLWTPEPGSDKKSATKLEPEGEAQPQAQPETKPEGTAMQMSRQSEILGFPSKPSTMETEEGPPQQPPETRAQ
Protocol: as §1

PDGFRA = PDGFRA (Homo sapiens, UniProt P16234); settings: 1 µM inhibitor, read-out: Residual activity, %
Chain of PDGFRA (P16234 24-1089): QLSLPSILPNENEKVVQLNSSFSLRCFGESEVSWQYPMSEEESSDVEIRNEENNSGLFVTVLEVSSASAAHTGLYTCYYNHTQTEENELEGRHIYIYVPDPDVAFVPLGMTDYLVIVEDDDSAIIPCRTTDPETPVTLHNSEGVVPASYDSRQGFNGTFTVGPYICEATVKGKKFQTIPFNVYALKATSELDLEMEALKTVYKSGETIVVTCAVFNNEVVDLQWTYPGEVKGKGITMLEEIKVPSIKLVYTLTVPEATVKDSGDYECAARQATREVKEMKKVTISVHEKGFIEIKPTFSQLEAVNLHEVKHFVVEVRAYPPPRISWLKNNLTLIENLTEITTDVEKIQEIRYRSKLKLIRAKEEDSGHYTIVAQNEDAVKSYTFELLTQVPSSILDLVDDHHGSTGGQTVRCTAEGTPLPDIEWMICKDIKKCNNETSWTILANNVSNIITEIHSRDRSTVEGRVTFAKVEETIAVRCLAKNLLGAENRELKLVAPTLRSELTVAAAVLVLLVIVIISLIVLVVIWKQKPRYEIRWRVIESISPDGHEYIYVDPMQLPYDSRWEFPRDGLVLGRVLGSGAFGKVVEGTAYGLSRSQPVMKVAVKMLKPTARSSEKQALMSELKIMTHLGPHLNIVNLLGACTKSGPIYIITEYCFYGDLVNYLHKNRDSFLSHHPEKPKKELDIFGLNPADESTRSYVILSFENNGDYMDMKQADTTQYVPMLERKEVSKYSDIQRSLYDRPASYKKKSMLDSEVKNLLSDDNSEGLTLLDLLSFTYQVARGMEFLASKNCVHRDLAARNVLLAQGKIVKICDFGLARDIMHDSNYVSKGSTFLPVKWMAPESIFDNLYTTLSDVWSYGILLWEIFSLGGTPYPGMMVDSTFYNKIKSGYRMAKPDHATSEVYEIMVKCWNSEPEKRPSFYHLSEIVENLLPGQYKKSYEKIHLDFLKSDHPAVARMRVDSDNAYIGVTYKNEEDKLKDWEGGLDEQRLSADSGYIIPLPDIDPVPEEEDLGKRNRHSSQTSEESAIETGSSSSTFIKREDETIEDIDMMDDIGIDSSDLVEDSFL
Protocol: as §1

JAK2 = JAK2 (Homo sapiens, UniProt O60674); settings: JAK2, 1 µM inhibitor; read-out: Residual activity, %
Chain of JAK2 (O60674 whole entry): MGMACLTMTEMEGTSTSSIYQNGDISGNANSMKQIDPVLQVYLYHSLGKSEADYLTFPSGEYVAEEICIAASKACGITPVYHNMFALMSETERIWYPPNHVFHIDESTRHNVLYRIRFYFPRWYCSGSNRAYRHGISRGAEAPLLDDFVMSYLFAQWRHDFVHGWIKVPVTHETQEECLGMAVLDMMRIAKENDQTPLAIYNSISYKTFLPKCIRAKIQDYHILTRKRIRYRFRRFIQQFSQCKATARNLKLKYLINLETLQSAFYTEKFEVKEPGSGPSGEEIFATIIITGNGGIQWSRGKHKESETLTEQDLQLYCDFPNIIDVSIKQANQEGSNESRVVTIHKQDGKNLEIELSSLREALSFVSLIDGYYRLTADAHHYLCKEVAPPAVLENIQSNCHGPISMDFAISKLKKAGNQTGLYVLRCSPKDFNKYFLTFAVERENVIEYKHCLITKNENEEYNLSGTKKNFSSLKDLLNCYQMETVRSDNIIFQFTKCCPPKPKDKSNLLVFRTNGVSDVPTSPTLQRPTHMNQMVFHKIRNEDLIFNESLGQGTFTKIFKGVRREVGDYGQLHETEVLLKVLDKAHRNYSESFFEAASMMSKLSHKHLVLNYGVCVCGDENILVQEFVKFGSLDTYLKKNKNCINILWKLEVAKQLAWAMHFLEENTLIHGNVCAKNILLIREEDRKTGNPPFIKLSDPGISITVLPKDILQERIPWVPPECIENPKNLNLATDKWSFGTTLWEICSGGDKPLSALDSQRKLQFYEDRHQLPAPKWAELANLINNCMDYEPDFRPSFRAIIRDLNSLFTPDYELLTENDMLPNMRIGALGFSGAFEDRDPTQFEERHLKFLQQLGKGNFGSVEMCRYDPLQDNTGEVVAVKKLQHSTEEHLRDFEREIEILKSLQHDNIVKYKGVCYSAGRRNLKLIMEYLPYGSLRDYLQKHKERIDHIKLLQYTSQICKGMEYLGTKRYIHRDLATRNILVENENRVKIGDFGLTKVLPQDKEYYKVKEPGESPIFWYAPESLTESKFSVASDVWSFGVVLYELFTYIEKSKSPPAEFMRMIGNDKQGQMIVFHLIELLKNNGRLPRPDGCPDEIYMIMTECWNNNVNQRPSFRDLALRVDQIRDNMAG
Protocol: as §1

EPH-A4 = EPH-A4 (Homo sapiens, UniProt P54764); settings: EPH-A4, 1 µM inhibitor; read-out: Residual activity, %
Chain of EPH-A4 (P54764 20-986): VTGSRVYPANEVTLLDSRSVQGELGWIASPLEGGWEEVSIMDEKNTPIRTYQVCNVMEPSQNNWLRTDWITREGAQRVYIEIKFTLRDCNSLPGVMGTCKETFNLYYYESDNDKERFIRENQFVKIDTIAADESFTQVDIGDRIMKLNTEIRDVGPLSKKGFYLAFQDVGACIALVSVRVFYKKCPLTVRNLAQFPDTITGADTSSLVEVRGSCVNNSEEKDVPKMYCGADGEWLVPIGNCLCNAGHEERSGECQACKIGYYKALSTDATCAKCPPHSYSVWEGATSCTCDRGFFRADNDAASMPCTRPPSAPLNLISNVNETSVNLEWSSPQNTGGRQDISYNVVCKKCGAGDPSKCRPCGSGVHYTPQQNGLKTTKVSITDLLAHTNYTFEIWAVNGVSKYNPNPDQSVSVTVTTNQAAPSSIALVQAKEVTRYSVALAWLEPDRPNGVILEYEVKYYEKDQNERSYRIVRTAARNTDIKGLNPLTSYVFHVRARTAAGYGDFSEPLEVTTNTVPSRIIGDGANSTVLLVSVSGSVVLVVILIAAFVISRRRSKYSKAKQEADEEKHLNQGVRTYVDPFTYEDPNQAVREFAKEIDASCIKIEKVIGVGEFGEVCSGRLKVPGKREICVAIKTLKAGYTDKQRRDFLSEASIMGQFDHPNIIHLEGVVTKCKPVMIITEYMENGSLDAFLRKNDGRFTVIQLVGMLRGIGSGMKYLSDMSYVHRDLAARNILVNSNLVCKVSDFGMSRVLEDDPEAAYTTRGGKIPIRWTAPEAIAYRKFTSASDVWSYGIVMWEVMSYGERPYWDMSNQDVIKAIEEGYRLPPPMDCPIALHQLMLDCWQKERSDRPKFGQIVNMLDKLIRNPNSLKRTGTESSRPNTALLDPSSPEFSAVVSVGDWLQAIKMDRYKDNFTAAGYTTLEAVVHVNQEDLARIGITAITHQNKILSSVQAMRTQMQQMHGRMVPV
Protocol: as §1

CK1γ2 = CK1γ2 (Homo sapiens, UniProt P78368); settings: CK1γ2, 1 µM inhibitor; read-out: Residual activity, %
Protocol: as §1

GCK = molecular target: T3, GCK (Homo sapiens, UniProt Q12851); settings: 1 µM inhibitor, read-out: Residual activity, %
T3 sequence (Q12851 1-820): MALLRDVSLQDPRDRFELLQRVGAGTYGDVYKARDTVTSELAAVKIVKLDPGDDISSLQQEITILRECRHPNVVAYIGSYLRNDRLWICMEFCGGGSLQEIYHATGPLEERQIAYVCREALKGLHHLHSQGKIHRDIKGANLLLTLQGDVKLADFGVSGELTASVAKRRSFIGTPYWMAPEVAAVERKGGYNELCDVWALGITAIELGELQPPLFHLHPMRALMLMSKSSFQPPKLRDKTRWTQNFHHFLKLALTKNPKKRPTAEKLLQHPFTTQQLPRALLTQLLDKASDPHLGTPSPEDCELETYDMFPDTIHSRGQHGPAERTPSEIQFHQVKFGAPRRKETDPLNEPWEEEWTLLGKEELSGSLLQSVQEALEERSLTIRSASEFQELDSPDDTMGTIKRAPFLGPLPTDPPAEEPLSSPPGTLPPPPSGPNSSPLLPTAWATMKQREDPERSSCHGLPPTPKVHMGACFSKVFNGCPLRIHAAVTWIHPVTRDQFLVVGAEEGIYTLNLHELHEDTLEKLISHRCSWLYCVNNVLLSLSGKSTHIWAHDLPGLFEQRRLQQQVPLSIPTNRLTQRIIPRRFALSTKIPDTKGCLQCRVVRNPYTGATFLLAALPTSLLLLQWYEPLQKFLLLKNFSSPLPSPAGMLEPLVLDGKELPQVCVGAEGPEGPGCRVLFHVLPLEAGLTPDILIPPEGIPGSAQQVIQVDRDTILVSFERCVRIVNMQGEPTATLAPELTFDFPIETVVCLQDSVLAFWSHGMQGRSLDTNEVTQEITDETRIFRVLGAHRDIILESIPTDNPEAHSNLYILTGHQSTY
Protocol: as §1

IR = IR (Homo sapiens, UniProt P06213); settings: 1 µM inhibitor, read-out: Residual activity, %
Chain of IR (P06213 28-1382): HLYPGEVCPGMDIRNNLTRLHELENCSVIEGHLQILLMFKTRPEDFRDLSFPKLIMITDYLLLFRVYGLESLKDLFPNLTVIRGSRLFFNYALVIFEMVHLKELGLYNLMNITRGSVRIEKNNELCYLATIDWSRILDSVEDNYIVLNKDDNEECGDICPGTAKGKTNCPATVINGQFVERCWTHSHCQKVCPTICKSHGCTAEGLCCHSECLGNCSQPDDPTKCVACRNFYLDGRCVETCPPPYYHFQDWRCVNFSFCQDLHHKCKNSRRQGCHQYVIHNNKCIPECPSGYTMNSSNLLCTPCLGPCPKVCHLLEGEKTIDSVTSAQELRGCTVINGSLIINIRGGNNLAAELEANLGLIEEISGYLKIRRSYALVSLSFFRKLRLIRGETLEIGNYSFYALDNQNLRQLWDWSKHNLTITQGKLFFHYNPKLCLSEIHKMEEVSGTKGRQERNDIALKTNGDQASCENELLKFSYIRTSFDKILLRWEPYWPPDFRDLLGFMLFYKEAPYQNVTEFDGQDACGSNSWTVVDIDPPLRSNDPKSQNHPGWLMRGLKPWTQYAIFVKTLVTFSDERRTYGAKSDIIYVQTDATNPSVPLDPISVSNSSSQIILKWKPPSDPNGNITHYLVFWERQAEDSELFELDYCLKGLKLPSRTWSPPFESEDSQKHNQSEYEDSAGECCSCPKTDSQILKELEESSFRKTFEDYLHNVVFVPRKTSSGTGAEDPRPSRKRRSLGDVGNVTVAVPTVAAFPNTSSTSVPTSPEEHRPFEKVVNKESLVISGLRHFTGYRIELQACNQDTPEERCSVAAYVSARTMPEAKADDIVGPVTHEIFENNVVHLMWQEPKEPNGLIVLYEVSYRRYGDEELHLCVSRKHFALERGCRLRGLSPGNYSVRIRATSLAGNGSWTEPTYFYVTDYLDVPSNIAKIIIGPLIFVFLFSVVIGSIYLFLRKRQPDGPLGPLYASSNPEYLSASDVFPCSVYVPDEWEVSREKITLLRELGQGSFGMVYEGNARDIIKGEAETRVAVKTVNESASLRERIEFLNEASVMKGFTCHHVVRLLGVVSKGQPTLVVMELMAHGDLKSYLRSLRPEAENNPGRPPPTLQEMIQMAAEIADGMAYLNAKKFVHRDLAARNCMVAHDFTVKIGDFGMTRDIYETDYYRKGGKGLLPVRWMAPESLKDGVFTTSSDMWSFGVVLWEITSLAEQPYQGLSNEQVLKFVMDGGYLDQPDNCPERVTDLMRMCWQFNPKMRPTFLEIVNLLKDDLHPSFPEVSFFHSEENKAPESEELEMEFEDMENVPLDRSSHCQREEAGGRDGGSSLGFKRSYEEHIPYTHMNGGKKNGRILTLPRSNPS
Protocol: as §1

ERK1 = ERK1 (Homo sapiens, UniProt P27361); settings: ERK1, 1 µM inhibitor; read-out: Residual activity, %
Chain of ERK1 (P27361 whole entry): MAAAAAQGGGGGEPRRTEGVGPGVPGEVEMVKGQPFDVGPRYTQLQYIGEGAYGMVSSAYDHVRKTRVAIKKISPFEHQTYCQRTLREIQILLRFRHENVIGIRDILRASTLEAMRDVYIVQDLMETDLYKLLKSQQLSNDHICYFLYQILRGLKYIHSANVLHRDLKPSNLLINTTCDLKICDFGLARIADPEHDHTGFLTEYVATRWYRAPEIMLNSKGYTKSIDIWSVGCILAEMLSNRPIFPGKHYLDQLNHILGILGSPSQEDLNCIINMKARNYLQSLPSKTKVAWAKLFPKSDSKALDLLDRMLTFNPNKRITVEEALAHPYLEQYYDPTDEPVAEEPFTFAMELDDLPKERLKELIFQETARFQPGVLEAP
Protocol: as §1

IRR = IRR (Homo sapiens, UniProt P14616); settings: 1 µM inhibitor, read-out: Residual activity, %
Protocol: as §1

Aurora A = molecular target: T4, Aurora A (Homo sapiens, UniProt O14965); settings: 1 µM inhibitor, read-out: Residual activity, %
T4 sequence (O14965 1-403): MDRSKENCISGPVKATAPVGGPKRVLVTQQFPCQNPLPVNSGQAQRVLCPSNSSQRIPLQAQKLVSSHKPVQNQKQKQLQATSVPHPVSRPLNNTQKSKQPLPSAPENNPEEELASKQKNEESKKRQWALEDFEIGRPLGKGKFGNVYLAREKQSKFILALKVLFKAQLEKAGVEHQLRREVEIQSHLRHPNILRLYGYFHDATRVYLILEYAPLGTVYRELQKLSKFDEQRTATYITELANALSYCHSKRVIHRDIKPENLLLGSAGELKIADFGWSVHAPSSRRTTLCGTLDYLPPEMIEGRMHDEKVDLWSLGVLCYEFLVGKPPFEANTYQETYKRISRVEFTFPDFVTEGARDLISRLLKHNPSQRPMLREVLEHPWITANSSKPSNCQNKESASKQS
Protocol: as §1

Compound | remaining activity at 1 µM (PRAK) | remaining activity at 1 µM (TSSK1) | remaining activity at 1 µM (PDGFRA) | remaining activity at 1 µM (JAK2) | remaining activity at 1 µM (EPH-A4) | remaining activity at 1 µM (CK1γ2) | remaining activity at 1 µM (GCK) | remaining activity at 1 µM (IR) | remaining activity at 1 µM (ERK1) | remaining activity at 1 µM (IRR) | remaining activity at 1 µM (Aurora A)
N=C(N)NCCC[C@@H](NC(=O)CCCCCNC(=O)Cn1cnc2c(I)c(I)c(I)c(I)c21)C(=O)N[C@H](CCCNC(=N)N)C(=O)N[C@H](CCCNC(=N)N)C(=O)N[C@H](CCCNC(=N)N)C(=O)N[C@H](CCCNC(=N)N)C(=O)N[C@H](CCCNC(=N)N)C(=O)N[C@H](CCCCN)C(N)=O [ARC-3125, TIBI-CH2-C(=O)-Ahx-(D-Arg)6-D-Lys-NH2] | 112 ± 3% | 63 ± 6% | 97% | 115 ± 5% | 97 ± 4% | 45 ± 5% | 56 ± 4% | 22 ± 6% | 89 ± 7% | 20 ± 34% | 84 ± 1%
N=C(N)NCCC[C@@H](NC(=O)CNC(=O)[C@@H](CCCNC(=N)N)NC(=O)[C@@H](CCCNC(=N)N)NC(=O)CCCCCCCNCc1nc2c(sc3cc(Br)cnc32)c(=O)[nH]1)C(=O)N[C@H](CCCCN)C(N)=O [Compound 1, BPTP-Aoc-(D-Arg)2-Gly-D-Arg-D-Lys-NH2] | 104 ± 13% | 98 ± 9% | 115 ± 2% | 93 ± 14% | 97 ± 2% | 117 ± 3% | 112% | 122 ± 7% | 119 ± 16% | 99 ± 2% | 99 ± 6%
N=C(N)NCCC[C@@H](NC(=O)CNC(=O)[C@@H](CCCNC(=N)N)NC(=O)[C@@H](CCCNC(=N)N)NC(=O)CCCCCCCNCc1nc2c(sc3ccc(Br)cc32)c(=O)[nH]1)C(=O)N[C@H](CCCCN)C(N)=O [Compound 2, BBTP-Aoc-(D-Arg)2-Gly-D-Arg-D-Lys-NH2] | 89% | 108% | 101 ± 16% | 82 ± 16% | 103 ± 16% | 116 ± 10% | 114 ± 2% | 139 ± 35% | 125 ± 6% | 99 ± 5% | 106 ± 3%
N=C(N)NCCC[C@@H](NC(=O)CCCCCNCc1nc2c(sc3cc(Br)cnc32)c(=O)[nH]1)C(=O)N[C@H](CCCNC(=N)N)C(=O)N[C@H](CCCNC(=N)N)C(=O)N[C@H](CCCNC(=N)N)C(=O)N[C@H](CCCNC(=N)N)C(=O)N[C@H](CCCNC(=N)N)C(=O)N[C@H](CCCCN)C(N)=O [ARC-3126, BPTP-Ahx-(D-Arg)6-D-Lys-NH2] (X3-[dR][dR][dR][dR][dR][dR][dK]-NH2) | 97 ± 7% | 97 ± 16% | 116 ± 3% | 116 ± 9% | 107 ± 13% | 66 ± 10% | 88 ± 14% | 117 ± 6% | 84 ± 7% | 75 ± 4% | 132 ± 8%
N=C(N)NCCC[C@@H](NC(=O)CNC(=O)[C@@H](CCCNC(=N)N)NC(=O)[C@@H](CCCNC(=N)N)NC(=O)Cn1cc(CNCc2nc3c(sc4ccc(Br)cc43)c(=O)[nH]2)nn1)C(=O)N[C@H](CCCCN)C(N)=O [Compound 3, BBTP-Amt-(D-Arg)2-Gly-D-Arg-D-Lys-NH2] | 79 ± 7% | 100 ± 10% | 108 ± 4% | 72 ± 21% | 95 ± 5% | 88 ± 1% | 97 ± 7% | 113 ± 23% | 107 ± 6% | 110 ± 1% | 97 ± 3%
